The text below walks through data of paper PMC8476121, “Structural insights into the activation of human calcium-sensing receptor” (eLife, 2021).

Data set [1] concerns the molecule itself. As to the kind of experiment: cryo-EM structure; inactive state: CaSR in GDN/CHS micelles with NPS-2143 (NAM), 1 mM CaCl2 and a 1.2 molar excess of NB-2D11.
In data set [2] the target is T1, CaSR ECD (extracellular domain of human calcium-sensing receptor) (Homo sapiens, UniProt P41180).
T1 construct: human calcium-sensing receptor (CaSR), extracellular domain (VFT domain and cysteine rich domain); crystal structures of CaSR ECD (PDB 5K5T, 5K5S; Geng et al., 2016) are cited but not tied to this construct
As to the kind of experiment: SPR; Biacore T200; CaSR ECD coupled to the chip by amino-carboxyl coupling; nanobody flowed at a series of concentrations (30 ul/min, association 90 s, dissociation 220 s); 25 C; 20 mM HEPES pH 7.4, 150 mM NaCl, 0.05% Tween 20. To be noted: both partners purified. In general terms: SPR reads the build-up and loss of mass on a sensor chip optically.

T1 sequence (P41180 whole entry, looked up, the tested form may be a part): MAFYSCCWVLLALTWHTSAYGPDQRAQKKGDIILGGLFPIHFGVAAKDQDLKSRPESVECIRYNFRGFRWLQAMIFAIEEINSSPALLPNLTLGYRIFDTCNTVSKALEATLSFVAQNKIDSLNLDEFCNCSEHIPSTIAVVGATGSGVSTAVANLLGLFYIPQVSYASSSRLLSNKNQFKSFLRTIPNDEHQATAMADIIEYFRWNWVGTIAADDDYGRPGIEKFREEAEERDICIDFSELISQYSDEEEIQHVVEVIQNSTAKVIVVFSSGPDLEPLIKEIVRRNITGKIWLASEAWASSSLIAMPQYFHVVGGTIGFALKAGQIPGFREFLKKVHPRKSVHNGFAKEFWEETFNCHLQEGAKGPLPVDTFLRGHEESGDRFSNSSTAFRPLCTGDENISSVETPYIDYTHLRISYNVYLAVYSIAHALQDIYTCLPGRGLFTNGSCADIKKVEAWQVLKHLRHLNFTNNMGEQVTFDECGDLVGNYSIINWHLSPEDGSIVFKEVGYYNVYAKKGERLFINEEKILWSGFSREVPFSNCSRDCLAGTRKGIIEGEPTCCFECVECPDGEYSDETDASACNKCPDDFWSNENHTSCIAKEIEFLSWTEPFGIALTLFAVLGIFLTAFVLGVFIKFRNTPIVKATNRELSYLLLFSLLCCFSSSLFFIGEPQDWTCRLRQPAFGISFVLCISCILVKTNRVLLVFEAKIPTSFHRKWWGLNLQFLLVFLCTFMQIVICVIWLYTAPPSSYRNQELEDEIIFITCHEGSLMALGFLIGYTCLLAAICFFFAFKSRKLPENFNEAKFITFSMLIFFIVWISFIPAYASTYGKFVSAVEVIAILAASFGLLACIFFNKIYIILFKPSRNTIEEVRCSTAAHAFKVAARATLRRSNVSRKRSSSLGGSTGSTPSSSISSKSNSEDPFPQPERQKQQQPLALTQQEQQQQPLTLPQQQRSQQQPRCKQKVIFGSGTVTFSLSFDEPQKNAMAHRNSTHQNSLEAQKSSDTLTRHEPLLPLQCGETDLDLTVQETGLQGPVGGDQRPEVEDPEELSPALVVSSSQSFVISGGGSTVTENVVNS

B1: Human calcium-sensing receptor CaSR (1-870) with C-terminal Flag tag (receptor, UniProt P41180-1 20-870, looked up)
chain: YGPDQRAQKKGDIILGGLFPIHFGVAAKDQDLKSRPESVECIRYNFRGFRWLQAMIFAIEEINSSPALLPNLTLGYRIFDTCNTVSKALEATLSFVAQNKIDSLNLDEFCNCSEHIPSTIAVVGATGSGVSTAVANLLGLFYIPQVSYASSSRLLSNKNQFKSFLRTIPNDEHQATAMADIIEYFRWNWVGTIAADDDYGRPGIEKFREEAEERDICIDFSELISQYSDEEEIQHVVEVIQNSTAKVIVVFSSGPDLEPLIKEIVRRNITGKIWLASEAWASSSLIAMPQYFHVVGGTIGFALKAGQIPGFREFLKKVHPRKSVHNGFAKEFWEETFNCHLQEGAKGPLPVDTFLRGHEESGDRFSNSSTAFRPLCTGDENISSVETPYIDYTHLRISYNVYLAVYSIAHALQDIYTCLPGRGLFTNGSCADIKKVEAWQVLKHLRHLNFTNNMGEQVTFDECGDLVGNYSIINWHLSPEDGSIVFKEVGYYNVYAKKGERLFINEEKILWSGFSREVPFSNCSRDCLAGTRKGIIEGEPTCCFECVECPDGEYSDETDASACNKCPDDFWSNENHTSCIAKEIEFLSWTEPFGIALTLFAVLGIFLTAFVLGVFIKFRNTPIVKATNRELSYLLLFSLLCCFSSSLFFIGEPQDWTCRLRQPAFGISFVLCISCILVKTNRVLLVFEAKIPTSFHRKWWGLNLQFLLVFLCTFMQIVICVIWLYTAPPSSYRNQELEDEIIFITCHEGSLMALGFLIGYTCLLAAICFFFAFKSRKLPENFNEAKFITFSMLIFFIVWISFIPAYASTYGKFVSAVEVIAILAASFGLLACIFFNKIYIILFKPSRNTIE
notes: signal peptide in the construct; human calcium-sensing receptor (CaSR), residues 1-870, cDNA NM_000388.4; Flag printed as DYKDDDD; Cloned into a modified pEG BacMam vector; also called full-length CaSR; hCaSR; source: HEK293 GnTI- cells infected with baculovirus (BacMam), purified (anti-Flag M2, Mono Q, Superose 6) in GDN/CHS
With B1, the binding result in data set [1] is given as “binds”.

B2: NB-2D11 (camel nanobody) (VHH)
VHH: QVQLQESGGGSVQAGGSLRLSCAASGFPISTYDMGWFRQAPGKEREGVVGITDSFSIKYEDSVKGRFTISRDNAKNALYLQMNSLKPEDTGMYYCAAGDARWSLLLRAEQYNYWGQGTQVTVSS
notes: Cloned in pMECS with a PelB signal peptide; HA tag followed by 6x histidine tag at the C-terminus; Isolated from a phage display library of camels immunised with human CaSR; also called NB-D211; source: E. coli TOP10F' periplasm, purified (Ni-NTA, Superdex 75)
One may read the Kd as a measure of binding affinity in units of concentration. In the case of B2, the Kd in data set [2] was 0.24 nM.
